T1: prefusion Hendra virus (HeV) F (Hendra virus, reference strain …, stabilised)
T1 chain: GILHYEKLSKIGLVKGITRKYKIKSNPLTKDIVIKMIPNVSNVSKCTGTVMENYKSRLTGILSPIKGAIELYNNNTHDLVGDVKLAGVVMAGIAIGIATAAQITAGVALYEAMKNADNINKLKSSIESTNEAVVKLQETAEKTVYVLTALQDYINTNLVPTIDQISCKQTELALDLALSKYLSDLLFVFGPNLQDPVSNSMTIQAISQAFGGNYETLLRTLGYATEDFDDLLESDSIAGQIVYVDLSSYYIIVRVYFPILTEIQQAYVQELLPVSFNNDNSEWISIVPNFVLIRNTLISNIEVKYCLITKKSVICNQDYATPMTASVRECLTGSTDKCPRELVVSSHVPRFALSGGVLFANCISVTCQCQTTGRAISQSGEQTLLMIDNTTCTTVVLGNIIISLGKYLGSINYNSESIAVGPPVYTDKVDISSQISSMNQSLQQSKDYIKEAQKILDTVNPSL

T2: prefusion Hendra virus (HeV) F protein (Hendra virus, reference strain …)
T2 chain: T1 chain

B1: Fab 4F6 (Fab, V domains shown)
VH: QVQLQQSGAELVKPGASVKLSCKASGYTFTSNWMHWVKQRPGRGLEWIGRIDPNSGGTKYNEKFKSKATLTVDKPSSTAYMQLSSLTSEDSAVYYCARDGHYAYFDVWAPGTTVTVSS
VL: DIVMTQSQKFMSTSVGDRVSVTCKASQNVGTTVAWYQQKPGQSPNALIYSASYRYTGVPDRFTGSGSGTDFTLTISNVQSEDLAEYFCQQYNRYPWTFGGGTKLEIK
notes: recombinant Fab of m13
B2: Fab 2B12 (Fab, V domains shown)
V domain 1: EVQLVESGGGLVQPKGSLKLSCAASGFIFNTYAMHWVRQAPGKGLEWVARIRSKSSNYATYYADSVKDRFTISRDDSQSMLYLQMNNLKTEDTAMYYCVREGGYYFDYWGQGTTLTFSA
V domain 2: DIVMSQSPSSLAVSVGEKVTMSCKSSQSLLHVSNQKNYLAWYQQKPGQSPKLLIYWASTRESGVPDRFTGSGSGTDFTLTISSVKAEDLAVYYCQQYYSYPWPFGGGTKLKSN
notes: recombinant Fab of m9
B3: Fab 1A9 (Fab, V domains shown)
VH: QVQLQQSGAELVRPGTSVKISCKASGYTFTNYWLGWVKQRPGHGLEWIGDIYRGGGYTNYNEKFKGKATLTADTSSSTAYMQLSSLTSEDSAVYFCATRDGYFDYWGQGTTLTVSS
VL: DIQMTQSSSSFSVSLGDRTTITCKASEDIYNRLAWFQQKPGNAPRLLISGATSLETGVPSRFSGSGSGKDYTLSITSLQTEDVATYYCQQYWSSPWTFGGGTKLEIK
notes: recombinant Fab of m7
B4: Fab 1H1 (Fab, V domains shown)
VH: VQLQQSGAELMRPGASMKISCKATGYTFSSYWIDWVKQRPGHGLEWIGEILPGSGDTNYNENFKGKAAFTADTSSNTAYMQLTSLTSEDSAVFYCARGGRYHGQGFFDYWGQGTTLTVSS
VL: IQMTQSPASLSASVGETVTITCRPSENVHIYLAWYQQKQGKSPQLLVYNAKTLADGVPSRFSGSASGTQFSLKINSLQPEDFGSYYCQHFWSIPYTFGGGTKLEIK
notes: recombinant Fab of m8
B5: Fab 1H8 (Fab, V domains shown)
VH: EVQLQQSGPELVKPGASVKISCKASGYSFTGYTMNWVKQSHGKNLEWIGLINPFIGGTRYNQKFKGKATLTVDKSSRTAYMELLSLTSEDSAVYYCAREADYDWYFDVWGAGTTVTVSS
VL: DIQMTQTTSSLSASLGDRVTISCRASQDISNYLHWYQQKPDGTVNLLIFYTSRLHSGVPSRFSGSGSGTDYSLTISNLEQEDIATYFCQQGNTLPRTFGGGTKLEIK
notes: recombinant Fab of m6
B6: Fab 2D3 (Fab, V domains shown)
VH: QVQLKQSGPGLVAPSQSLSITCTVSGFSLTSYALSWVRQPPGKGLEWLGVIWVGGVTNYNSALKSRLTISKDNSKSQVFLKMNSLQSEDTARYYCASRHLSTGAMDYWGQGTSVTVSA
VL: DVLMTQSPLSLPVSLGDQASISCRSSQSIVHSNGDTYFEWYLQKPGQSPKLLIYKVSNRFSGVPNRFSGSGSGTDFTLKISRVEAEDLGVYYCFQGSYVPYTFGGGTKLEIK
notes: recombinant Fab of m5
B7: Fab 1F2 (Fab, V domains shown)
VH: EVQLQQSGPELVKPGVSLKISCKASGYSFTDYTMNWVKQSHGKNLEWIGLINPYIGGTRYNQKFKGKATLTVDKSSSTAYLELLSLTSEDSAVYYCARFSGSSNRAMDYWGQGTSVTVSS
VL: DIQMTQSPASLSASVGETVTITCGASENIYGALNWYQRKQGKSPQLLIYGATNLADGMSSRFSGSGSARQYSLKISSLHPDDVATYYCQNVLSIPWTFGGGTKLEIK
notes: recombinant Fab of m12
B8: Fab 4F6 (Fab, V domains shown)
VH: B1 VH
VL: B1 VL
B9: Fab 2B12 (Fab, V domains shown)
V domain 1: B2 V domain 1
V domain 2: B2 V domain 2
B10: Fab 1H1 (Fab, V domains shown)
VH: B4 VH
VL: B4 VL
B11: Fab 1F2 (Fab, V domains shown)
VH: B7 VH
VL: B7 VL

Target: T1, prefusion Hendra virus (HeV) F
Experiment: BLI
Details: both partners purified

Binder	binding result
B1	binds
B2	binds
B3	binds
B4	binds
B5	binds
B6	binds
B7	binds

Target: T2, prefusion Hendra virus (HeV) F protein
Experiment: BLI
Details: both partners purified

Binder	binding result
B8	binds
B9	binds
B10	binds
B11	binds

— paper PMC10021056 (Nature Communications, 2023)
